experiment: soluble on expression in E. coli; label from the status in PepcDB or PDB records

Question: For “MGSDKIHHHHHHMTAIQHIERLARGRSEQAVAVIKNVQQMSNIPMHEMQLALKQLLNCGRIALHFHPDRIDSRGMTVAEGLLRDGQYRSQFETHISNGQLSPELGGPRDHWENQLFGDVYKGTKSRPKYGALDLGMWQDGPAPRFGSCYLLTHASVMARSTFCYLDSYRNPKEKGTLSCFDDVLAALLTESFERHYALGKSDFKPLNVIHYLGHQLNASLLSRFERPLSNNLDHYIEAQIHGDVSLDEDIAMLVADPSFKGTDIGASLSKICDRYDIELQYHDGFSLHTAQIPSDFRGPTMPSQANRIAIEDRVDAYAIGVAARDLYHSPQHWRDRGNRAQVAHELKLLWHVLVKYGAVQ”, which “soluble on expression in E. coli” value is on record?
Answer: Its value is “not soluble”.

Question: Which “soluble on expression in E. coli” value does the source give for “MGSDKIHHHHHHMVAQIQELEAQHWVKTRSSLDPNESTFLIWKGKIYAFIPGEKRQLLFKILGLSVSRCIPTAEGSWDFTSRELTYYLNPKTDEILRKWENPWTSETVPVIHVANNPVQGKFEGNFPAQVDGDSTTFVFDIFPYYPNPLADDPKFAEYSPNPIYQAAELFKLTVPTADLFNSALPSVSELKLSWDRIGQWLPWMKMGDRPGQLIYSAVGSKVNGLTELPPLLQDEINNRIPLYKQAPKALIDGEDMTSWLYFQKHFPAYLAGEIFPLPQAEEL” here?
Answer: Its value is “not soluble”.

Question: With “SSWKPRSQQPDAPLGTGANRDLELPWLEQQGPASHHRRQLGPQGPPHLVADPSKKQGPWLEEEEEAYGWMDFGRRSAEDEN” as the sequence, how does the “soluble on expression in E. coli” value read?
Answer: The value was “soluble”.

Question: For “MAHHHHHHMSVFAAARQRAAHYANRNPLFAKLNKTHLEYFNCVLREQCPKNKKPGRMLTDPNKIVSFNRDWMNQVEGECPVVLLPTSTQQVAAILRYCQSEKIGIVPQCGNTGLVYGSSALHDEVILSLREMNGDPVVSPQTMSTEAEAGVILQQLQEAAKTHDLLVPITMGSKGSAQIGGAVSTNAGGIHFARYGSMHANVLGLEVVTAQGEVLDMMSTLRKDNAGYDMKHLFIGSEGTLGVVTRVSLKLYPFPRSTQLALFRLTTFESVLELYRLAQEHLSECLSAFEVVDGESLSVTPQEELPFTRTSKSDTFRAGQDFTSAYFCVMVETNGSNAEHDMEKLSRFVEAAECNPRCVSKGDLGESFEPVLSQSLAQTAQLWNLREDTPVRLASAGTIYIFDVSFPLDKFYDIVLHFRKMIYKNGGFDPDEVLVVGYGHFGDGNIHLNVVDRTRKHSDALDAVLFPAVYEFCAAHSGSISAEHGVGVQKKAYLGFSRKPEVIALMRTLKRTMDPNGILNPYKVID”, which “soluble on expression in E. coli” value is on record?
Answer: Its value is “soluble”.

Question: Which “soluble on expression in E. coli” value does the source give for “AIADNGDWGYMMTDPVTLNVGGHLYTTSLTTLTRYPDSMLGAMFGGDFPTARDPQGNYFIDRDGPLFRYVLNFLRTSELTLPLDFKEFDLLRKEADFYQIEPLIQCLNDPKPLYPMDTFEEVVELSSTRKLSKYSNPVAVIITQLTITTKVHSLLEGISNYFTKWNKHMMDTRDCQVSFTFGPCDYHQEVSLRVHLMEYITKQGFTIRNTRVHHMSERANENTVEHNWTFCRLARKTDD” here?
Answer: Its value is “soluble”.

Question: With “MGSDKIHHHHHHMKKILVVSHGAALGGSPISGLNIGRHIDKNQFEVIYAFGEEREIFDIAKKEGFKVFFVPKRSYLTIWDYAKIICREKIDIVHLNTLTSYYKYPAMAAWLCRKKIVWFVRENPEEKRCVRLGKYINALADRIVTVSLDTAKKMFYANHAKLCTIYNGIDLKFKKIEGRERLCEELGLSAREKYILCVASLEERKGVKDLVRAFLSSLPKLQGYKLLIVGEDRTKEQRYFLELKELAKDSSEVIFYGKSQKIQQLLSLSELFVLPSYWEGMARVILEAMACGLPVVASDAGGNREQVMDGVNGFLFPPRDIQALSAALEKAILGGRTQLLGKNSRELLEKNFDIKETTKKIENLYKAL” as the sequence, how does the “soluble on expression in E. coli” value read?
Answer: The value was “not soluble”.

Question: With “MPTVQTIYSLEKAPEATKDKEPLVVYATSVDWKWVFSYPEQDIETVNYLNIPVDRPILCKISSADSMASLWIPQLGGQKYAMAGMLMDQYLQADKVGTYEGRNANFTGEHFADQEFDVNAVTEKDFNSWVKKTQNEAPKLTKEKYDELMLPENVDELTFSSTHLKYVDHGQDAEYAMEARKRLGYQAVSPHCKTDPFENVKKNEFKKSDDTEE” as the sequence, how does the “soluble on expression in E. coli” value read?
Answer: Its value is “not soluble”.

Question: For “MSQPAYRLFNVELKRREQLSPALTRFVFGGPEVAEMKTLAADQRIKIFFPDASGQPPSLPGGSEWYQAYRSVEPARRPPMRTYTIRALRAEQEEVDVEFVLHGENGPASAWATHARIGDRLQLAAPNRQYGDDPGGYEWKPPAGVRHILLIADETALPAVAGILEELAGETEPPVVEAFLEVPGEADILDLPAIPAARLHWLPRHQAGIHSRNGERMIEAARQARLPEREVAGGAAQELEDIDIDEEILWELASPESGSFYAWVAGESAAVMAIRRYLVQERGIDKRHLTLMGYWRLGKVFD”, which “soluble on expression in E. coli” value is on record?
Answer: Its value is “not soluble”.

Question: With “MGSDKIHHHHHHMKTSKKWIAHFEANALHQRINWDLFPAITEAETASVLSSLQAWQLGETSDGAHLIHASTLYASHIGDLDYIDAVKLFIKEEQKHGNNLGRYLDVIDKPRIKKDWGDSLFRKIRYFNTNMEIWTLAVITVESAAQVFYQCLKNATECTLLRQICTDILIDEAYHIDFQTERMTILFNKKSVLSRCLSRIMYPVFFFSTSLLVWSAHKKLFKAGGIDFKKYMNKMKYKYFKTLHRIALVCSRKSTLIHSALH” as the sequence, how does the “soluble on expression in E. coli” value read?
Answer: Its value is “not soluble”.

Question: With “MTRRVLLLSASVLLATAGYAPEPYYNKYGGYHKALDKKHGGYEADQTGYGGHNGMSDYGNEQGAYGHYDGKYGEAGKKSGQEYYAKGDEHGHGDEAHEKGLKKNGDAYGGKKFSYFTSGSGPYGSYQKGYYGSDGYEHDDHKSKYSSHNEDNGFKKGYDGAGAGHDDKYTSYDKEDAGHKKHHDKYDIGKYGAKQGGYAKQGHEEGWKNEAQKNSYGSRENGQEYGHPYY” as the sequence, how does the “soluble on expression in E. coli” value read?
Answer: The value was “not soluble”.

Question: For “MGLLTNDIIEESAWEALEKSILYYKGRPVGTVAAFDASVEALNYDQCFVRDFVSSALIFLIKGKTDIVRNFLEETLKLQPKDRQLDAYKPGRGLIPASFKVVSDNGEEYLEADFGEHAIARVTPVDSCLWWILLLRAYVVASKDFSLAYQPEFQTGIRLIMEICLANRFDMYPTLLVPDGACMIDRRLGIYGHPLELQVLFYAALRAAREMLICQGNQDVVEAIDNRLPLLCAHIRQHYWIDINRLNAIYRFKSEEYGKAAVNLFNIYVDSIPYYELDKWLPKKGGYLAGNVGPSQLDTRFFALGNLMAIISDLATEEQSQAIMTLIEDRWEDLVGDMPMKICYPALENEEYRIVTGCDPKNIPWSYHNAGSWPVLMWMLAAASVKAGKPYIAGKAIEIAQARLLEDEWPEYYDGKKGRLIGKQARKYQTWTIAGFLLAAELMKNPSLLSLISFDKLPSELVSRACEFEIGSVDASISRLEHHHHHH”, which “soluble on expression in E. coli” value is on record?
Answer: Its value is “soluble”.

Question: Which “soluble on expression in E. coli” value does the source give for “MGSDKIHHHHHHVDLGHDVTLFASGDSITSAKLDACWPRALRLDPTIRDALAPHMLMMEKVRKVAHEFDVLHFHLDYMPFPLFTTMDTPFVTTLHGRLDLPELQPVFDACSNVPVVSISDSQRQPLPQANWLNTIYHGLPEQLLTPQAHKKPEYLAFLGRICPEKRVDTAIRIAAQSGLPLKIAAKVDKVDQEYFKREIEPLLSMAHVEFVGEINEAQKPEFLSSAKALLFPIDWSESFGLVMIESMACGTPVIAFNRGSVPEVIDHGVTGYIVEDVQGAVAALQRLDELSRTEMRGRRLNLPLEKMRDWRIGSRVCRHHAG” here?
Answer: The value was “not soluble”.

Question: Which “soluble on expression in E. coli” value does the source give for “MGNQQCNWYGTLYPLCVTTTNGWGWEDQRSCIARSTCAAQPAPFGIVGSG” here?
Answer: The value was “soluble”.

Question: For “SRRSLRAGKRRQTAGRKSKSPPKVPIVIQDDSLPAGPPPQIRILKRPTSNGVVSSPNSTSRPTLPVKSLAQREAEYAEARKRILGSASPEEEQEKPILDRPTRISQPEDSRQPNNVIRQPLGPDGSQGFKQRR”, which “soluble on expression in E. coli” value is on record?
Answer: Its value is “soluble”.

Question: For “MGSDKIHHHHHHMKDDQWLEARAHGDPMFPCNVYRVKEVNGQVIIHCHWHHEMEWIYMEAGEAEFQIGTKMTTVRAGEGLFIPSGHLHGAYPVSDKPFSLYATVVHPDFISSFGYDLIQSRYIDPFKDSERTGPIKLCPTHYWMSDMLTMLQATISQFQQKEEGYELVIKANLLQMMAELVKHFPRTEEQKTGTPQQIRQIKKVLQFIDEHYDEKLTIKQLANLVQMSEGHFSRFFKSIVRMTAVEYIHTQRLNKAARLLRETDRTIMDISMSVGFDHPSYFIKLFKRHKRCTPSEFRRIGLPTFSENMKT”, which “soluble on expression in E. coli” value is on record?
Answer: Its value is “not soluble”.

Question: Which “soluble on expression in E. coli” value does the source give for “MSKLSFRARALDASKPLPVFRCEDLPDLHEYASINRAVPQMPTGMEKEEESVMLRFFSLYFYRLYPPSTRSLLCASLHKMAAMFLPDGNGDGAHTSPLVIPHSGWLVGLIRISL” here?
Answer: The value was “not soluble”.
